Tested on: Tiam1/CaMKII complex
Format: cell-based
Conditions: bath application (AP5, KN-93) or cotransfection (CaMKIIN)

B1: CaMKIIN: endogenous CaMKII inhibitor protein, cotransfected (protein)
chain: MSEILPYGEDKMGRFGADPEGSDLSFSCRLQDTNSFFAGNQAKRPPKLGQIGRAKRVVIEDDRIDDVLKGMGEKPPSGV
B1 was tested, and the “effect on Tiam1/CaMKII interaction after sLTP induction” value was “blocked”.

Reference: PMC6669903 (Neuron, 2019)
